Key:
[1] = molecular target: T1, MutS (Cy5-labeled) (Escherichia coli) (UniProt P23909); details: mung bean nuclease and SSB treated hydrogel chip
T1 sequence: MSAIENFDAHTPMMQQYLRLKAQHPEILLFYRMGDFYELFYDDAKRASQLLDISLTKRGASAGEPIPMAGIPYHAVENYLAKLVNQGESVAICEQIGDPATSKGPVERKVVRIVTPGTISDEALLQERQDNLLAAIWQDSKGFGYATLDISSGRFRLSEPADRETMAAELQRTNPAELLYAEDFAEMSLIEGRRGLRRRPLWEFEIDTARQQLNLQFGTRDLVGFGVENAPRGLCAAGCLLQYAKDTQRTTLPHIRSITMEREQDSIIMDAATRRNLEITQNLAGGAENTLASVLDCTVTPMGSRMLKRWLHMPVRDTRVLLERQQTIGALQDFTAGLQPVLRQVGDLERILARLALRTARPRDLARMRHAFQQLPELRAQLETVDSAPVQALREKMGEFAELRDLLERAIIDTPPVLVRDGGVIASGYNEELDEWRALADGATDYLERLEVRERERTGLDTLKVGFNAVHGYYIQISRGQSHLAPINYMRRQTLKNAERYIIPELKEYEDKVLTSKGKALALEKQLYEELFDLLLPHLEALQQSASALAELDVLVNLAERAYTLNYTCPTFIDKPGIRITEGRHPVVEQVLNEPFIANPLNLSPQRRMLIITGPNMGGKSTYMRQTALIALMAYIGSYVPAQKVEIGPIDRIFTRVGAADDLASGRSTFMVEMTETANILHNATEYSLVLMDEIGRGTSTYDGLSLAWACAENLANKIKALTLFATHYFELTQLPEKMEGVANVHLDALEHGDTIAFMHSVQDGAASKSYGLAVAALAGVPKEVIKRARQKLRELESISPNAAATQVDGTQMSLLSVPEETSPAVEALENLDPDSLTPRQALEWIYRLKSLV

[2] = molecular target: T2, MBP-MutS fusion (Cy5-labeled) (Escherichia coli) (UniProt P23909); details: with nuclease and SSB
T2 sequence: T1 sequence

AGTGGTAATCTACTGGGACGGAACAGCTTTGAGGTGCGTGTTTGTGCCTGTCCTGGGAGAGACCGGCGCACAG (double strand) [cExon8/SW-480 PCR product]
binding signal (fluorescence units) [1]: 461 | binding signal (fluorescence units) [2]: 168
